The source of these data is patent US20240287190A1 (THERANOTICS, published 2024).

Sequences and labels used below:
B1: #3 (mono) B7-H3 mono antibody free of TGFβ binding portion (antibody, human IgG1, N297A, V domains shown)
VH: EVQLLESGGGLVQPGGSLRLSCAASGFTFSTYYMTWVRQAPGKGLEWVSIINPRGGSTSYAEKFQGRFTISRDNSKNTLYLQMNSLRAEDTAVYYCARWNLGMDVWGQGTLVTVSS
VL: EIVLTQSPGTLSLSPGERATLSCRVSQSISSYLNWYQQKPGQAPRLLIYDASHRATGIPDRFSGSGSGTDFTLTISRLEPEDFAVYYCQQYYAPSVTFGQGTKVEIK
B2: #5 (mono) B7-H3 mono antibody free of TGFβ binding portion (antibody, human IgG1, N297A, V domains shown)
VH: EVQLLESGGGLVQPGGSLRLSCAASGFTFSTYAMSWVRQAPGKGLEWVSAISGSGGSTLYADSVKGRFTISRDNSKNTLYLQMNSLRAEDTAVYYCARGGSATWAFDLWGQGTLVTVSS
VL: QSVLTQPPSASGTPGQRVTISCSGSSSNIGSNYVYWYQQLPGTAPKLLIYRNNQRPSGVPDRFSGSKSGTSASLAISGLRSEDEADYYCGTWDSSLSGVVFGGGTKLTVL
B3: #4 (mono) B7-H3 mono antibody free of TGFβ binding portion (antibody, human IgG1, N297A, V domains shown)
VH: EVQLLESGGGLVQPGGSLRLSCAASGFTFSSYGMHWVRQAPGKGLEWVSAISGSGTSIYYANSVKSRFTISRDNSKNTLYLQMNSLRAEDTAVYYCARGAGWFDYWGQGTLVTVSS
VL: QSVLTQPPSASGTPGQRVTISCSGSTSNIGSNTVNWYQQLPGTAPKLLIYGKNIRPNGVPDRFSGSKSGTSASLAISGLHSEDEADYYCQSYDSSLSGWVFGGGTKLTVL
B4: #6 (mono) B7-H3 mono antibody free of TGFβ binding portion (antibody, human IgG1, N297A, V domains shown)
VH: EVQLLESGGGLVQPGGSLRLSCAASGFTFSTYAISWVRQAPGKGLEWVSSIYYSGYTHYNPSLESRFTISRDNSKNTLYLQMNSLRAEDTAVYYCARGYSGWMDVWGQGTLVTVSS
VL: QSVLTQPPSASGTPGQRVTISCGGNNIGSKSVHWYQQLPGTAPKLLIYDNNKRPSGVPNRFSGSKSGTSASLAISGLRSEDEADYYCAAWDDSLNVPVFGGGTKLTVL
B5: #9 (mono) B7-H3 mono antibody free of TGFβ binding portion (antibody, human IgG1, N297A, V domains shown)
VH: EVQLLESGGGLVQPGGSLRLSCAASGFTFSSYAMNWVRQAPGKGLEWVSTISGSGGQTYYADSVKGRFTISRDNSKNTLYLQMNSLRAEDTAVYYCARWRSIWAFDYWGQGTLVTVSS
VL: B4 VL with G23S, G24D, N59D, A88G, A89T, N95S, V96G
B6: #7 (mono) B7-H3 mono antibody free of TGFβ binding portion (antibody, human IgG1, N297A, V domains shown)
VH: EVQLLESGGGLVQPGGSLRLSCAASGFTFSNFWIGWVRQAPGKGLEWVSWINPPGSITSYADSVKGRFTISRDNSKDTLYLQMNSLRAEDTAVYYCAREVGDVLDYWGQGTLVTVSS
VL: QSVLTQPPSASGTPGQRVTISCTGTSSDIGRYNYVSWYQQLPGTAPKLLIYRNTQRPSGVPDRFSGSKSGTSASLAISGLRSEDEADYYCGTWDSSLNAYVFGGGTKLTVL
B7: #8 (mono) B7-H3 mono antibody free of TGFβ binding portion (antibody, human IgG1, N297A, V domains shown)
VH: EVQLLESGGGLVQPGSSLRLSCAASGFTFSSYWISWVRQAPGKGLEWVSEISPSGNTNYNPSLKSRFTISRDNSKNTLYLQMNSLRAEDTAVYYCAREVGDLLDYWGQGTLVTVSS
VL: QSVLTQPPSASGTPGQRVTISCSGSNIGNNYVSWYQQLPGTAPKLLIYQDSKRPSGVPDRFSGSKSGTSASLAISGLRSEDEADYYCLVWDRSSDHFVFGGGTKLTVL

Substitutions are numbered along the chain they refer to.

T1 sequence (P01137 279-390 limits assumed): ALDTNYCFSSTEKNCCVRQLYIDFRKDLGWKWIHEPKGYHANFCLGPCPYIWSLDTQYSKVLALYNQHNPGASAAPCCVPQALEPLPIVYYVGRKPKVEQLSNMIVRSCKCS

One experiment concerns the target T1, recombinant human TGFβ1 protein (R&D Systems, Cat #7754-BH-025/CF) (human, UniProt P01137 279-390).
T1 construct: Bought protein
Nature of the experiment: bridging ELISA on plate-coated TGFβ1, detected with His-tag human B7-H3; paragraph 158 says the mono antibodies are not bound to TGFβ1. (In general: ELISA stands for enzyme-linked immunosorbent assay.)
B1: the binding result is “no binding”.
On to B2, for which the binding result is “no binding”.
On the same count and under the same terms, the result for B3 reads “no binding”.

The target of a further experiment is T1, recombinant human TGFβ1 protein (R&D …). The description is as above. The source holds these as a separate data set.
On to B4, for which the binding result is reported as “no binding”.
The same measure, in the same setting: the result for B5 reads “no binding”; that for B6, “no binding”.
On the same count and under the same terms, the result for B7 reads “no binding”.
